Assays:
[1] = target: latent TGF-β1 released by human OA cartilage explants (human) (UniProt P01137); test: cell-based or functional assay
[2] = target: integrin αvβ3 on chick embryo sternal chondrocytes (chick) (UniProt P26008); test: cell-based or functional assay
Sequence of integrin αvβ3 on chick embryo sternal chondrocytes (chick) (P26008 20-1034): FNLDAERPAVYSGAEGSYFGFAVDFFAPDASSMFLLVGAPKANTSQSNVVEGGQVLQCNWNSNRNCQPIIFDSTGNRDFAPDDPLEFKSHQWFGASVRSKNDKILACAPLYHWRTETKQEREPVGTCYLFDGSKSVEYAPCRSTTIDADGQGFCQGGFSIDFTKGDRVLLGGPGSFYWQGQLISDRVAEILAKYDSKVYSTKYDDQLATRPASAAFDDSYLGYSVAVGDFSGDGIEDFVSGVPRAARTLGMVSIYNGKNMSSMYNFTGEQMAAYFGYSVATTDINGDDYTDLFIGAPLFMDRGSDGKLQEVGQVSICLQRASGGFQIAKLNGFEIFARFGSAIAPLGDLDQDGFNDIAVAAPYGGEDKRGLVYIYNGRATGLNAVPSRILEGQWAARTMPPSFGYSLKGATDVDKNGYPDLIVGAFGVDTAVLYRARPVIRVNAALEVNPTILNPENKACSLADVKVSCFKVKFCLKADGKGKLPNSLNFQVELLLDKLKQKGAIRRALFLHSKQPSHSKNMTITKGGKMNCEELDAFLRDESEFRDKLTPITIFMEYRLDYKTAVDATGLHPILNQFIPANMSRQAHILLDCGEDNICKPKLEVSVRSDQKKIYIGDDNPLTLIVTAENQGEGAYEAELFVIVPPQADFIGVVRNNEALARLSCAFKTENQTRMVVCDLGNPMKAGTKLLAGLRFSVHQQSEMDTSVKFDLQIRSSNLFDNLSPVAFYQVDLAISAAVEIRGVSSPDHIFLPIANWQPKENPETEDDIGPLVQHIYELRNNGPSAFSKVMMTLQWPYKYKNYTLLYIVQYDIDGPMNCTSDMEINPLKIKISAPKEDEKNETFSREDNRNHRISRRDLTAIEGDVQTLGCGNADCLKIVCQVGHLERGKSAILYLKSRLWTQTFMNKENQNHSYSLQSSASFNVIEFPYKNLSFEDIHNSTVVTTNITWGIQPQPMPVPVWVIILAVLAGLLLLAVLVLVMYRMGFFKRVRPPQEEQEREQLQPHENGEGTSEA

Sequence of latent TGF-β1 released by human OA cartilage explants (human) (P01137 30-390 limits assumed): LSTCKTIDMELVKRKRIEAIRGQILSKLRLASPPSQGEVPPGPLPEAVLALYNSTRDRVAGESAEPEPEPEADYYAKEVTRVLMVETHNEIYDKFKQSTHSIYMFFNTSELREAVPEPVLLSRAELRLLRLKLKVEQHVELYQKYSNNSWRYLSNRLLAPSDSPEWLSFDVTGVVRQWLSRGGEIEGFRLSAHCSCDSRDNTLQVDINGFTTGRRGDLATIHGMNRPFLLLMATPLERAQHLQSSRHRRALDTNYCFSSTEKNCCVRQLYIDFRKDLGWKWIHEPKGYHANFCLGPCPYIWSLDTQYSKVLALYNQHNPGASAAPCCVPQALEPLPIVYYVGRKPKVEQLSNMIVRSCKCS

Row | active TGF-β1 in OA cartilage explant supernatants (ELISA) [1] | active TGF-β1 in OA cartilage explant supernatants (ELISA) (pg/g cartilage) [1] | decrease in AP activity of F-spondin transfected, RA stimulated chick chondrocytes [2] | Substance
1 | 225% | 550 |  | recombinant human F-spondin (R&D systems) (from UniProt Q9HCB6 29-807) (ligand)
2 |  |  | 50% | LM609, integrin αvβ3 blocking antibody (Chemicon International, Cat No MAB1976Z)
